From patent publication US20250109203A1
Substitutions are numbered along the chain they refer to.

B1: hu1D7v63 VHH-hIgG1 Fc-NNT (monomeric) (VHH)
VHH: EVQLLESGGGEVQPGGSLRLSCAASRGKISQYRMGWYRQAPGKERELVAHISNTGDAAEYVAPVKDRFTISRDNAKNALYLQMSSLRAEDTAVYKCNTVEDILAWGQGTLVTVRP
B2: hu1D7v11 VHH-hIgG1 Fc-NNT (monomeric) (VHH)
VHH: EVQLLESGGGEVQPGGSLRLSCVASRGKISQYRMGWYRQAPGKGLEWVAAISNTGDAAEYVDSVKGRFTISRDSTKNAVYLQMSSLRAEDTAVYKCNSVEDILAWGQGTLVTVKP
B3: hu1D7v17 VHH-hIgG1 Fc-NNT (monomeric) (VHH)
VHH: B2 VHH with A50H, E59Y
B4: hu1D7v8 VHH-hIgG1 Fc-NNT (monomeric) (VHH)
VHH: B2 VHH with R33A, A50H
B5: hu1D7v78 VHH-hIgG1 Fc-NNT (monomeric) (VHH)
VHH: B1 VHH with A23V, A62D, P63S, N74S, A75T, T98A
B6: hu1D7v35 VHH-hIgG1 Fc-NNT (monomeric) (VHH)
VHH: B2 VHH with G44E, A50H, V79L
B7: hu1D7v24 VHH-hIgG1 Fc-NNT (monomeric) (VHH)
VHH: B2 VHH with A50H, S98A
B8: hu1D7v19 VHH-hIgG1 Fc-NNT (monomeric) (VHH)
VHH: B2 VHH with A50H, G66D
B9: hu1D7v74 VHH-hIgG1 Fc-NNT (monomeric) (VHH)
VHH: B1 VHH with A23V, P63S, N74S, A75T, T98S
B10: hu1D7v28 VHH-hIgG1 Fc-NNT (monomeric) (VHH)
VHH: B2 VHH with V23A, G44E, A50H
B11: hu1D7v58 VHH-hIgG1 Fc-NNT (monomeric) (VHH)
VHH: B1 VHH with A23V, A62D, P63S, N74S, A75T, T98S
B12: hu1D7v1 VHH-hIgG1 Fc-NNT (monomeric) (VHH)
VHH: B2 VHH with A50H
B13: hu1D7v16 VHH-hIgG1 Fc-NNT (monomeric) (VHH)
VHH: B2 VHH with A50H, A58T
B14: hu1D7v79 VHH-hIgG1 Fc-NNT (monomeric) (VHH)
VHH: B1 VHH with A23V, A62D, P63S, N74S, A75T, T98L
B15: hu1D7v25 VHH-hIgG1 Fc-NNT (monomeric) (VHH)
VHH: B2 VHH with A50H, N97A
B16: hu1D7v38 VHH-hIgG1 Fc-NNT (monomeric) (VHH)
VHH: B2 VHH with G44E, A50H, S98V
B17: hu1D7v83 VHH-hIgG1 Fc-NNT (monomeric) (VHH)
VHH: B1 VHH with A23V, A62D, P63G, N74S, A75T, T98S
B18: hu1D7v75 VHH-hIgG1 Fc-NNT (monomeric) (VHH)
VHH: B1 VHH with A23V, A62G, P63S, N74S, A75T, T98S
B19: hu1D7v61 VHH-hIgG1 Fc-NNT (monomeric) (VHH)
VHH: B1 VHH with A23V, A62D, P63S, N74S, A75T
B20: hu1D7v81 VHH-hIgG1 Fc-NNT (monomeric) (VHH)
VHH: B1 VHH with A23V, A62D, P63S, N74S, A75T, N97A, T98S
B21: hu1D7v18 VHH-hIgG1 Fc-NNT (monomeric) (VHH)
VHH: B2 VHH with A50H, V61A, D62E
B22: hu1D7v33 VHH-hIgG1 Fc-NNT (monomeric) (VHH)
VHH: B2 VHH with G44E, A50H, G66D
B23: hu1D7v93 VHH-hIgG1 Fc-NNT (monomeric) (VHH)
VHH: B1 VHH with A23V, A62D, P63S, N74S, A75T, T98Q
B24: hu1D7v89 VHH-hIgG1 Fc-NNT (monomeric) (VHH)
VHH: B1 VHH with A23V, A62D, P63S, N74S, A75T, N97Q, T98G
B25: hu1D7v26 VHH-hIgG1 Fc-NNT (monomeric) (VHH)
VHH: B2 VHH with A50H, K95Y
B26: hu1D7v34 VHH-hIgG1 Fc-NNT (monomeric) (VHH)
VHH: B2 VHH with G44E, A50H, S74N, T75A
B27: hu1D7v37 VHH-hIgG1 Fc-NNT (monomeric) (VHH)
VHH: B2 VHH with G44E, A50H, S98T
B28: hu1D7v30 VHH-hIgG1 Fc-NNT (monomeric) (VHH)
VHH: B2 VHH with G44E, A50H, E59Y
B29: hu1D7v69 VHH-hIgG1 Fc-NNT (monomeric) (VHH)
VHH: B1 VHH with A23V, A62D, P63S, N74S, A75T, N97T, T98S
B30: hu1D7v91 VHH-hIgG1 Fc-NNT (monomeric) (VHH)
VHH: B1 VHH with A23V, A62D, P63S, N74S, A75T, N97G, T98G
B31: hu1D7v67 VHH-hIgG1 Fc-NNT (monomeric) (VHH)
VHH: B1 VHH with A23V, A62D, P63S, N74S, A75T, N97Q, T98S
B32: hu1D7v66 VHH-hIgG1 Fc-NNT (monomeric) (VHH)
VHH: B1 VHH with A23V, A62D, P63T, N74S, A75T, T98S
B33: hu1D7v57 VHH-hIgG1 Fc-NNT (monomeric) (VHH)
VHH: B2 VHH with G44E, L45R, W47L, A50H, V79L, K114R
B34: hu1D7v23 VHH-hIgG1 Fc-NNT (monomeric) (VHH)
VHH: B2 VHH with A50H, V79L
B35: hu1D7v59 VHH-hIgG1 Fc-NNT (monomeric) (VHH)
VHH: B1 VHH with A23V, N74S, A75T, T98S
B36: hu1D7v73 VHH-hIgG1 Fc-NNT (monomeric) (VHH)
VHH: B1 VHH with A23V, A62D, P63I, N74S, A75T, T98S
B37: hu1D7v96 VHH-hIgG1 Fc-NNT (monomeric) (VHH)
VHH: B1 VHH with A23V, A62Y, P63S, N74S, A75T, T98S
B38: hu1D7v87 VHH-hIgG1 Fc-NNT (monomeric) (VHH)
VHH: B1 VHH with A23V, A62Q, P63S, N74S, A75T, T98S
B39: hu1D7v70 VHH-hIgG1 Fc-NNT (monomeric) (VHH)
VHH: B1 VHH with A23V, A62D, P63S, N74S, A75T, N97E, T98S
B40: hu1D7v36 VHH-hIgG1 Fc-NNT (monomeric) (VHH)
VHH: B2 VHH with G44E, A50H, K95Y
B41: hu1D7v15 VHH-hIgG1 Fc-NNT (monomeric) (VHH)
VHH: B2 VHH with A50H, A57S
B42: hu1D7v60 VHH-hIgG1 Fc-NNT (monomeric) (VHH)
VHH: B1 VHH with A23V, A62D, P63S, T98S
B43: hu1D7v84 VHH-hIgG1 Fc-NNT (monomeric) (VHH)
VHH: B1 VHH with A23V, A62E, P63G, N74S, A75T, T98S
B44: hu1D7v29 VHH-hIgG1 Fc-NNT (monomeric) (VHH)
VHH: B2 VHH with Q31S, G44E, A50H
B45: hu1D7v94 VHH-hIgG1 Fc-NNT (monomeric) (VHH)
VHH: B1 VHH with A23V, A62D, P63S, N74S, A75T, N97S, T98N
B46: hu1D7v4 VHH-hIgG1 Fc-NNT (monomeric) (VHH)
VHH: B2 VHH with G27F, A50H
B47: hu1D7v31 VHH-hIgG1 Fc-NNT (monomeric) (VHH)
VHH: B2 VHH with G44E, A50H, D62A, S63P
B48: hu1D7v76 VHH-hIgG1 Fc-NNT (monomeric) (VHH)
VHH: B1 VHH with A23V, A62V, P63S, N74S, A75T, T98S
B49: hu1D7v22 VHH-hIgG1 Fc-NNT (monomeric) (VHH)
VHH: B2 VHH with A50H, A78T
B50: hu1D7v13 VHH-hIgG1 Fc-NNT (monomeric) (VHH)
VHH: B2 VHH with A50H, T54S
B51: hu1D7v88 VHH-hIgG1 Fc-NNT (monomeric) (VHH)
VHH: B1 VHH with A23V, A62Q, P63G, N74S, A75T, T98S
B52: hu1D7v14 VHH-hIgG1 Fc-NNT (monomeric) (VHH)
VHH: B2 VHH with A50H, D56G
B53: hu1D7v71 VHH-hIgG1 Fc-NNT (monomeric) (VHH)
VHH: B1 VHH with A23V, A62D, P63V, N74S, A75T, T98S
B54: hu1D7v90 VHH-hIgG1 Fc-NNT (monomeric) (VHH)
VHH: B1 VHH with A23V, A62D, P63S, N74S, A75T, N97S, T98G
B55: hu1D7v80 VHH-hIgG1 Fc-NNT (monomeric) (VHH)
VHH: B1 VHH with A23V, A62D, P63S, N74S, A75T, T98V
B56: hu1D7v72 VHH-hIgG1 Fc-NNT (monomeric) (VHH)
VHH: B1 VHH with A23V, A62D, P63L, N74S, A75T, T98S
B57: hu1D7v32 VHH-hIgG1 Fc-NNT (monomeric) (VHH)
VHH: B2 VHH with G44E, A50H, D62E
B58: hu1D7v39 VHH-hIgG1 Fc-NNT (monomeric) (VHH)
VHH: B2 VHH with G44E, A50H, K114R
B59: hu1D7v92 VHH-hIgG1 Fc-NNT (monomeric) (VHH)
VHH: B1 VHH with A23V, A62D, P63S, N74S, A75T, N97Q, T98N
B60: hu1D7v6 VHH-hIgG1 Fc-NNT (monomeric) (VHH)
VHH: B2 VHH with I29F, A50H
B61: hu1D7v65 VHH-hIgG1 Fc-NNT (monomeric) (VHH)
VHH: B1 VHH with A23V, A62D, P63A, N74S, A75T, T98S
B62: 1D7 VHH-hIgG1 Fc-NNT (monomeric, parental) (VHH)
VHH: QVQLVQSGGGLVQPGGSLRLSCVASRGKISQYRMGWYRQAPGKQRELVAHISNTGDAAEYVDSVKGRFTISRDSTKNAVYLQMNSLKPEDTAVYKCNSVEDILAWGQGTQVTVKP

target: human γδ TCR (Vγ9Vδ2) on human Vδ2+ γδ T cells (human) (UniProt A0JD36); experiment: flow cytometry on expanded human Vδ2+ γδ T cells, nonlinear fit

Row | Kd [nM] | Binder
1 | 14.7 | B1
2 | 42.2 | B2
3 | 20.1 | B3
4 | 7870 | B4
5 | 481 | B5
6 | 8.4 | B6
7 | 9440 | B7
8 | 26.7 | B8
9 | 60.4 | B9
10 | 15.7 | B10
11 | 8.07 | B11
12 | 5.23 | B12
13 | 24.6 | B13
14 | 497 | B14
15 | 866000 | B15
16 | 20200 | B16
17 | 36.3 | B17
18 | 118 | B18
19 | 41.3 | B19
20 | 843 | B20
21 | 42.5 | B21

Row | Kd [nM] | Binder
22 | 13 | B22
23 | 1090 | B23
24 | 1950 | B24
25 | 29 | B25
26 | 11.7 | B26
27 | 17.4 | B27
28 | 38.4 | B28
29 | 1010 | B29
30 | 154 | B30
31 | 1740 | B31
32 | 93.3 | B32
33 | 10.5 | B33
34 | 18.1 | B34
35 | 23.8 | B35
36 | 180 | B36
37 | 191 | B37
38 | 44.9 | B38
39 | 441 | B39
40 | 1500 | B40
41 | 16.4 | B41
42 | 9.67 | B42

Row | Kd [nM] | Binder
43 | 43.6 | B43
44 | 7230 | B44
45 | 752 | B45
46 | 8860 | B46
47 | 16.7 | B47
48 | 125 | B48
49 | 29.1 | B49
50 | 18.2 | B50
51 | 61.5 | B51
52 | 21.5 | B52
53 | 135 | B53
54 | 95.6 | B54
55 | 646 | B55
56 | 182 | B56
57 | 35.7 | B57
58 | 7.99 | B58
59 | 104 | B59
60 | 35.1 | B60
61 | 347 | B61
62 | 6.09 | B62
